For five proteins, Km and kcat results are on record in paper doi:10.1101/2020.10.07.330233v1.

Changes are numbered by the printed parent chain. Numbers in names are those of the source.

Substrate in this data set: O=[N+]([O-])c1ccc(O[C@@H]2O[C@H](CO)[C@@H](O)[C@H](O)[C@H]2O)cc1
In words: purified protein. As to conditions: 1 hour assay.

[1] abbreviates: average of two wild-type replicates (WT-1, WT-2).

B1: β-glucosidase B (BglB) (Paenibacillus polymyxa) (protein)
chain: MSENTFIFPATFMWGTSTSSYQIEGGTDEGGRTPSIWDTFCQIPGKVIGGDCGDVACDHFHHFKEDVQLMKQLGFLHYRFSVAWPRIMPAAGIINEEGLLFYEHLLDEIELAGLIPMLTLYHWDLPQWIEDEGGWTQRETIQHFKTYASVIMDRFGERINWWNTINEPYCASILGYGTGEHAPGHENWREAFTAAHHILMCHGIASNLHKEKGLTGKIGITLNMEHVDAASERPEDVAAAIRRDGFINRWFAEPLFNGKYPEDMVEWYGTYLNGLDFVQPGDMELIQQPGDFLGINYYTRSIIRSTNDASLLQVEQVHMEEPVTDMGWEIHPESFYKLLTRIEKDFSKGLPILITENGAAMRDELVNGQIEDTGRHGYIEEHLKACHRFIEEGGQLKGYFVWSFLDNFEWAWGYSKRFGIVHINYETQERTPKQSALWFKQMMAKNGF
As to B1, under setting [1], the Km is given as 9.8 ± 2.2 mM and the kcat amounted to 10.37 ± 0.763 s⁻¹.

B2: β-glucosidase B (BglB) (Paenibacillus polymyxa; A360S) (protein)
chain: B1 chain with A360S
For the protein B2, under “technical triplicate”, the Km is recorded as 12.7 ± 1.4 mM and the kcat stood at 1.55 ± 0.0533 s⁻¹.

B3: β-glucosidase B (BglB) (Paenibacillus polymyxa; I23V) (protein)
chain: B1 chain with I23V
Take B3: where the note is “technical triplicate”, the Km came to 12.7 ± 0.53 mM and the kcat was found to be 9.4 ± 0.125 s⁻¹.

B4: β-glucosidase B (BglB) (Paenibacillus polymyxa; I23A) (protein)
chain: B1 chain with I23A
With B4, for the setting “technical triplicate”, the Km is 17.1 ± 1.1 mM and the kcat stood at 1.54 ± 0.035 s⁻¹.

B5: β-glucosidase B (BglB) (Paenibacillus polymyxa; I48K) (protein)
chain: B1 chain with I48K
With B5, where the note is “technical triplicate”, the Km is recorded as 4.2 ± 0.1 mM and the kcat was 4.998 ± 0.04 s⁻¹.
